This note sets out measurements from US20250257332A1 (MONASH UNIVERSITY, published 2025).

In general, IC50 refers to the concentration needed to halve the response being measured.

The assay deals with T1, recombinant mouse CCR5 (MyBioSource) (mouse, UniProt P51682 1-354, limits assumed).
T1 construct: Coated on ELISA plates at 20 nM; also called mrCCR5
The experiment in a line: competition ELISA: hNAMPTcif 0-100 nM against 100 nM hrNAMPT(1) on coated recombinant mouse CCR5. The protocol: hrNAMPT competitive binding to mrCCR5: ELISA plates (Medium binding, Greiner Bio-One) were coated with 1% BSA or 20 nM of recombinant mouse CCR5 (MyBioSource) in PBS overnight at 4° C. Then, wells were blocked for 1 h at room temperature with 1% BSA in PBS containing 0.05% Tween-20 (PBS-T). Wells were washed 3 times with PBS-T and further incubated with hNAMPTcif at increasing concentration (0 nM to 100 nM) for 1 h in PBS-T with 0.1% BSA containing 100 nM hrNAMPT (1) (Peprotech). Bound hrNAMPT (1) molecules were detected using a biotinylated antibody for NAMPT and HRP-streptavidin (Human PBEF/Visfatin DuoSet ELISA, R&D Systems). Signals obtained on BSA-coated wells were used to remove non-specific binding for each hrNAMPT concentrations to obtain specific binding values. Specific binding data were fitted by non-linear regression with Prism 7 to obtain the half maximal inhibitory concentration (IC50) of hNAMPTnif using A450nm=A450nmMin+(A450nmMax−A450nmMin)/(1+10\hat{ }(X-LogIC50)).
Background: In an ELISA, binding on a coated surface is turned into a signal by an enzyme label.

T1 sequence (P51682 whole entry): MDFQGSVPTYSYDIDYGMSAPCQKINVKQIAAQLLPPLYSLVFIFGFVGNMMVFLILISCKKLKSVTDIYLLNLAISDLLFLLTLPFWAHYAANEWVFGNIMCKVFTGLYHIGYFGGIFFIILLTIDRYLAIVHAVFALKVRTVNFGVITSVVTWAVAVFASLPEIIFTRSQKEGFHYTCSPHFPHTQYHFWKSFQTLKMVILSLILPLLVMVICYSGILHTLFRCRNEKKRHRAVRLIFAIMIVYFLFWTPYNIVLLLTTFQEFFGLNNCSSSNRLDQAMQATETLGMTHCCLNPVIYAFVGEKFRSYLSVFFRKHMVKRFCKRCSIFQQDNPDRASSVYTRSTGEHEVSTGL

B1: human NAMPT cytokine finger (hNAMPTcif; NAMPT402-491) (ligand)
chain: SYVVTNGLGINVFKDPVADPNKRSKKGRLSLHRTPAGNFVTLEEGKGDLEEYGQDLLHTVFKNGKVTKSYSFDEIRKNAQLNIELEAAHH
notes: also called hNAMPTnif
As for B1, the IC50 came out at 21.5 nM.
